From the supplement of paper PMC10567573

B1: PLD5 (parent)
chain: VTYMNMTAYNKGRLQSSFWIVDKQ
B2: HSP90AB1 (parent)
chain: YHTSQSGDEMTSLSEYVSRMKETQ

Variants of: B1
Assay: protein stability index of a GFP-peptide fusion (GPS, HEK-293T) (PSI 1-6); higher = more stable
Conditions: c terminus: a fixed tail appended
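Note: lentivirally expressed fusions sorted by FACS into six bins by GFP to DsRed ratio, PSI derived from sequencing read proportions per bin multiplied by bin number.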

In order of falling protein stability index:
1. YTYMNMTAYNKGRLQSSFWIVDKQ  3.25
2. VTDMNMTAYNKGRLQSSFWIVDKQ  3.2
3. VMYMNMTAYNKGRLQSSFWIVDKQ  2.88
4. NTYMNMTAYNKGRLQSSFWIVDKQ  2.88
5. KTYMNMTAYNKGRLQSSFWIVDKQ  2.73
6. VHYMNMTAYNKGRLQSSFWIVDKQ  2.6
7. VAYMNMTAYNKGRLQSSFWIVDKQ  2.55
8. VKYMNMTAYNKGRLQSSFWIVDKQ  2.52
9. WTYMNMTAYNKGRLQSSFWIVDKQ  2.46
10. MTYMNMTAYNKGRLQSSFWIVDKQ  2.45
11. ETYMNMTAYNKGRLQSSFWIVDKQ  2.35
12. VCYMNMTAYNKGRLQSSFWIVDKQ  2.25
13. GTYMNMTAYNKGRLQSSFWIVDKQ  2.21
14. STYMNMTAYNKGRLQSSFWIVDKQ  2.17
15. PTYMNMTAYNKGRLQSSFWIVDKQ  2.11
16. VGYMNMTAYNKGRLQSSFWIVDKQ  2.08
17. VQYMNMTAYNKGRLQSSFWIVDKQ  2.08
18. VTAMNMTAYNKGRLQSSFWIVDKQ  1.99
19. LTYMNMTAYNKGRLQSSFWIVDKQ  1.97
20. VRYMNMTAYNKGRLQSSFWIVDKQ  1.91
21. QTYMNMTAYNKGRLQSSFWIVDKQ  1.9
22. VSYMNMTAYNKGRLQSSFWIVDKQ  1.87
23. VEYMNMTAYNKGRLQSSFWIVDKQ  1.87
24. DTYMNMTAYNKGRLQSSFWIVDKQ  1.78
25. RTYMNMTAYNKGRLQSSFWIVDKQ  1.77
26. VIYMNMTAYNKGRLQSSFWIVDKQ  1.76
27. VPYMNMTAYNKGRLQSSFWIVDKQ  1.68
28. VDYMNMTAYNKGRLQSSFWIVDKQ  1.67
29. HTYMNMTAYNKGRLQSSFWIVDKQ  1.61
30. VTCMNMTAYNKGRLQSSFWIVDKQ  1.55
31. TTYMNMTAYNKGRLQSSFWIVDKQ  1.54
32. CTYMNMTAYNKGRLQSSFWIVDKQ  1.49
33. ATYMNMTAYNKGRLQSSFWIVDKQ  1.44
34. VWYMNMTAYNKGRLQSSFWIVDKQ  1.4
35. VNYMNMTAYNKGRLQSSFWIVDKQ  1.29

Variants of: B2
Assay: as above
Conditions: c terminus: a fixed tail appended

In order of falling protein stability index:
1. YHTSQSGDEMTSLSEYVSRMKEDQ  4.52
2. YHTSQSGDEMTSLSEYVSRMKVTQ  4.22
3. YHTSQSGDEMTSLSEYVSRMEETQ  4.2
4. YHTSQSGDEMTSLSEYVSRMKCTQ  4.17
5. YHTSQSGDEMTSLSEYVSRMKEVQ  4.14
6. YHTSQSGDEMTSLSEYVSRMKEGQ  4.12
7. YHTSQSGDEMTSLSEYVSRMDETQ  4.08
8. YHTSQSGDEMTSLSEYVDRMKETQ  4
9. YHTSQSGDEMTSLSEYVSRMKQTQ  3.94
10. YHTSQSGDEMTSLSEYVPRMKETQ  3.92
11. YHTSQSGDEMTSLSEYVSRMKEQQ  3.9
12. YHTSQSGDEMTSLSEYVSRMKITQ  3.89
13. YHTSQSGDEMTSLSEYVSRMKENQ  3.88
14. YHTSQSGDEMTSLSEYVSRMKNTQ  3.84
15. YHTSQSGDEMTSLSEYVSRMKDTQ  3.83
16. YHTSQSGDEMTSLSEYVSRMKEAQ  3.81
17. YHTSQSGDEMTSLSEYVTRMKETQ  3.81
18. YHTSQSGDEMTSLSEYVERMKETQ  3.8
19. YHTSQSGDEMTSLSEYVSRMKEKQ  3.78
20. YHTSQSGDEMTSLSEYVSRMKERQ  3.76
21. YHTSQSGDEMTSLSEYVARMKETQ  3.72
22. YHTSQSGDEMTSLSEYVSRMKFTQ  3.71
23. YHTSQSGDEMTSLSEYVSRMKTTQ  3.67
24. YHTSQSGDEMTSLSEYVQRMKETQ  3.66
25. YHTSQSGDEMTSLSEYVSRMKEIQ  3.63
26. YHTSQSGDEMTSLSEYVSRMKKTQ  3.63
27. YHTSQSGDEMTSLSEYVRRMKETQ  3.6
28. YHTSQSGDEMTSLSEYVSRMKEHQ  3.59
29. YHTSQSGDEMTSLSEYVSRMKELQ  3.57
30. YHTSQSGDEMTSLSEYVSRMKLTQ  3.54
31. YHTSQSGDEMTSLSEYVKRMKETQ  3.53
32. YHTSQSGDEMTSLSEYVSRMHETQ  3.52
33. YHTSQSGDEMTSLSEYVSRMKESQ  3.5
34. YHTSQSGDEMTSLSEYVSRMKYTQ  3.44
35. YHTSQSGDEMTSLSEYVMRMKETQ  3.41
36. YHTSQSGDEMTSLSEYVGRMKETQ  3.36
37. YHTSQSGDEMTSLSEYVHRMKETQ  3.35
38. YHTSQSGDEMTSLSEYVSRMKEPQ  3.33
39. YHTSQSGDEMTSLSEYVSRMKGTQ  3.33
40. YHTSQSGDEMTSLSEYVSRMQETQ  3.32
41. YHTSQSGDEMTSLSEYVSRMKMTQ  3.31
42. YHTSQSGDEMTSLSEYVNRMKETQ  3.31
43. YHTSQSGDEMTSLSEYVSRMKEMQ  3.29
44. YHTSQSGDEMTSLSEYVSRMKECQ  3.23
45. YHTSQSGDEMTSLSEYVVRMKETQ  3.23
46. YHTSQSGDEMTSLSEYVSRMKPTQ  3.17
47. YHTSQSGDEMTSLSEYVSRMKEYQ  3.16
48. YHTSQSGDEMTSLSEYVSRMKATQ  3.07
49. YHTSQSGDEMTSLSEYVSRMKHTQ  3.05
50. YHTSQSGDEMTSLSEYVSRMKSTQ  3
51. YHTSQSGDEMTSLSEYVIRMKETQ  3
52. YHTSQSGDEMTSLSEYVSRMKEEQ  2.89
53. YHTSQSGDEMTSLSEYVCRMKETQ  2.87
54. YHTSQSGDEMTSLSEYVSRMFETQ  2.84
55. YHTSQSGDEMTSLSEYVSRMKEWQ  2.79
56. YHTSQSGDEMTSLSEYVLRMKETQ  2.74
57. YHTSQSGDEMTSLSEYVYRMKETQ  2.56
58. YHTSQSGDEMTSLSEYVSRMKWTQ  1.79
59. YHTSQSGDEMTSLSEYVWRMKETQ  1.77
